These results are taken from patent US20090099029A1, “Methods and substrates for conducting assays” (Invitrogen Corporation, priority 2005, published 2009).

The test system of the data set is kinases of Table 6 on Myelin Basic Protein (MBP). Description: Kinase assay using MBP substrate, ProQ Diamond stain (Table 6). Type of data set: biochemical. The settings on record: kinase printed on MBP-coated slide; 20 uM ATP, 30° C.; ProQ Diamond Microarray Stain; graded Strong/Weak/Negative. A digest of the protocol:
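Bovine dephosphorylated MBP coated on aldehyde- or epoxy-glass slides, kinases printed on top; reaction buffer pH 7.5 with 4 mM MgCl2, 20 uM ATP, 5% DMSO, ± inhibitor, at 30° C. Phosphorylation detected by ProQ Diamond stain, 30 min in dark.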

B1: PTK2(FAK) (protein)
chain: MAAAYLDPNLNHTPNSSTKTHLGTGMERSPGAMERVLKVFHYFESNSEPTTWASIIRHGDATDVRGIIQKIVDSHKVKHVACYGFRLSHLRSEEVHWLHVDMGVSSVREKYELAHPPEEWKYELRIRYLPKGFLNQFTEDKPTLNFFYQQVKSDYMLEIADQVDQEIALKLGCLEIRRSYWEMRGNALEKKSNYEVLEKDVGLKRFFPKSLLDSVKAKTLRKLIQQTFRQFANLNREESILKFFEILSPVYRFDKECFKCALGSSWIISVELAIGPEEGISYLTDKGCNPTHLADFTQVQTIQYSNSEDKDRKGMLQLKIAGAPEPLTVTAPSLTIAENMADLIDGYCRLVNGTSQSFIIRPQKEGERALPSIPKLANSEKQGMRTHAVSVSETDDYAEIIDEEDTYTMPSTRDYEIQRERIELGRCIGEGQFGDVHQGIYMSPENPALAVAIKTCKNCTSDSVREKFLQEALTMRQFDHPHIVKLIGVITENPVWIIMELCTLGELRSFLQVRKYSLDLASLILYAYQLSTALAYLESKRFVHRDIAARNVLVSSNDCVKLGDFGLSRYMEDSTYYKASKGKLPIKWMAPESINFRRFTSASDVWMFGVCMWEILMHGVKPFQGVKNNDVIGRIENGERLPMPPNCPPTLYSLMTKCWAYDPSRRPRFTELKAQLSTILEEEKAQQEERMRMESRRQATVSWDSGGSDEAPPKPSRPGYPSPRSSEGFYPSPQHMVQTNHYQVSGYPGSHGITAMAGSIYPGQASLLDQTDSWNHRPQEIAMWQPNVEDSTVLDLRGIGQVLPTHLMEERLIRQQQEMEEDQRWLEKEERFLKPDVRLSRGSIDREDGSLQGPIGNQHIYQPVGKPDPAAPPKKPPRPGAPGHLGSLASLSSPADSYNEGVKLQPQEISPPPTANLDRSNDKVYENVTGLVKAVIEMSSKIQPAPPEEYVPMVKEVGLALRTLLATVDETIPLLPASTHREIEMAQKLLNSDLGELINKMKLAQQYVMTSLQQEYKKQMLTAAHALAVDAKNLLDVIDQARLKMLGQTRPH
modifications: left off: a dimerising Fc or GST
With B1, the “MBP Kinase Activity” value was “Negative”.

B2: MATK(HYL) (protein)
chain: MQGHFPAERREGRPRRGTRGQQQLLVSPRFLRAWHPPPVSARMPTRRWAPGTQCITKCEHTRPKPGELAFRKGDVVTILEACENKSWYRVKHHTSGQEGLLAAGALREREALSADPKLSLMPWFHGKISGQEAVQQLQPPEDGLFLVRESARHPGDYVLCVSFGRDVIHYRVLHRDGHLTIDEAVFFCNLMDMVEHYSKDKGAICTKLVRPKRKHGTKSAEEELARAGWLLNLQHLTLGAQIGEGEFGAVLQGEYLGQKVAVKNIKCDVTAQAFLDETAVMTKMQHENLVRLLGVILHQGLYIVMEHVSKGNLVNFLRTRGRALVNTAQLLQFSLHVAEGMEYLESKKLVHRDLAARNILVSEDLVAKVSDFGLAKAERKGLDSSRLPVKWTAPEALKHGKFTSKSDVWSFGVLLWEVFSYGRAPYPKMSLKEVSEAVEKGYRMEPPEGCPGPVHVLMSSCWEAEPARRPPFRKLAEKLARELRSAGAPASVSGQDADGSTSPRSQEP
modifications: left off: small tags and cut ends
As for B2, the “MBP Kinase Activity” value was “Negative”.

B3: FES (protein)
chain: MGFSSELCSPQGHGVLQQMQEAELRLLEGMRKWMAQRVKSDREYAGLLHHMSLQDSGGQSRAISPDSPISQSWAEITSQTEGLSRLLRQHAEDLNSGPLSKLSLLIRERQQLRKTYSEQWQQLQQELTKTHSQDIEKLKSQYRALARDSAQAKRKYQEASKDKDRDKAKDKYVRSLWKLFAHHNRYVLGVRAAQLHHQHHHQLLLPGLLRSLQDLHEEMACILKEILQEYLEISSLVQDEVVAIHREMAAAAARIQPEAEYQGFLRQYGSAPDVPPCVTFDESLLEEGEPLEPGELQLNELTVESVQHTLTSVTDELAVATEMVFRRQEMVTQLQQELRNEEENTHPRERVQLLGKRQVLQEALQGLQVALCSQAKLQAQQELLQTKLEHLGPGEPPPVLLLQDDRHSTSSSEQEREGGRTPTLEILKSHISGIFRPKFSLPPPLQLIPEVQKPLHEQLWYHGAIPRAEVAELLVHSGDFLVRESQGKQEYVLSVLWDGLPRHFIIQSLDNLYRLEGEGFPSIPLLIDHLLSTQQPLTKKSGVVLHRAVPKDKWVLNHEDLVLGEQIGRGNFGEVFSGRLRADNTLVAVKSCRETLPPDLKAKFLQEARILKQYSHPNIVRLIGVCTQKQPIYIVMELVQGGDFLTFLRTEGARLRVKTLLQMVGDAAAGMEYLESKCCIHRDLAARNCLVTEKNVLKISDFGMSREEADGVYAASGGLRQVPVKWTAPEALNYGRYSSESDVWSFGILLWETFSLGASPYPNLSNQQTREFVEKGGRLPCPELCPDAVFRLMEQCWAYEPGQRPSFSTIYQELQSIRKRHR
modifications: left off: small tags and cut ends
As to B3, the “MBP Kinase Activity” value is listed as “Negative”.

B4: CSK (protein)
chain: MSAIQAAWPSGTECIAKYNFHGTAEQDLPFCKGDVLTIVAVTKDPNWYKAKNKVGREGIIPANYVQKREGVKAGTKLSLMPWFHGKITREQAERLLYPPETGLFLVRESTNYPGDYTLCVSCDGKVEHYRIMYHASKLSIDEEVYFENLMQLVEHYTSDADGLCTRLIKPKVMEGTVAAQDEFYRSGWALNMKELKLLQTIGKGEFGDVMLGDYRGNKVAVKCIKNDATAQAFLAEASVMTQLRHSNLVQLLGVIVEEKGGLYIVTEYMAKGSLVDYLRSRGRSVLGGDCLLKFSLDVCEAMEYLEGNNFVHRDLAARNVLVSEDNVAKVSDFGLTKEASSTQDTGKLPVKWTAPEALREKKFSTKSDVWSFGILLWEIYSFGRVPYPRIPLKDVVPRVEKGYKMDAPDGCPPAVYEVMKNCWHLDAAMRPSFLQLREQLEHIKTHELHL
modifications: left off: small tags and cut ends
For B4, the “MBP Kinase Activity” value is on record as “Negative”.

B5: TEC (protein)
chain: MNFNTILEEILIKRSQQKKKTSPLNYKERLFVLTKSMLTYYEGRAEKKYRKGFIDVSKIKCVEIVKNDDGVIPCQNKYPFQVVHDANTLYIFAPSPQSRDLWVKKLKEEIKNNNNIMIKYHPKFWTDGSYQCCRQTEKLAPGCEKYNLFESSIRKALPPAPETKKRRPPPPIPLEEEDNSEEIVVAMYDFQAAEGHDLRLERGQEYLILEKNDVHWWRARDKYGNEGYIPSNYVTGKKSNNLDQYEWYCRNMNRSKAEQLLRSEDKEGGFMVRDSSQPGLYTVSLYTKFGGEGSSGFRHYHIKETTTSPKKYYLAEKHAFGSIPEIIEYHKHNAAGLVTRLRYPVSVKGKNAPTTAGFSYEKWEINPSELTFMRELGSGLFGVVRLGKWRAQYKVAIKAIREGAMCEEDFIEEAKVMMKLTHPKLVQLYGVCTQQKPIYIVTEFMERGCLLNFLRQRQGHFSRDVLLSMCQDVCEGMEYLERNSFIHRDLAARNCLVSEAGVVKVSDFGMARYVLDDQYTSSSGAKFPVKWCPPEVFNYSRFSSKSDVWSFGVLMWEVFTEGRMPFEKYTNYEVVTMVTRGHRLYQPKLASNYVYEVMLRCWQEKPEGRPSFEDLLRTIDELVECEETFGR
modifications: left off: small tags and cut ends
Regarding B5, the “MBP Kinase Activity” value is reported as “Negative”.

B6: ZAP70 (protein)
chain: MPDPAAHLPFFYGSISRAEAEEHLKLAGMADGLFLLRQCLRSLGGYVLSLVHDVRFHHFPIERQLNGTYAIAGGKAHCGPAELCEFYSRDPDGLPCNLRKPCNRPSGLEPQPGVFDCLRDAMVRDYVRQTWKLEGEALEQAIISQAPQVEKLIATTAHERMPWYHSSLTREEAERKLYSGAQTDGKFLLRPRKEQGTYALSLIYGKTVYHYLISQDKAGKYCIPEGTKFDTLWQLVEYLKLKADGLIYCLKEACPNSSASNASGAAAPTLPAHPSTLTHPQRRIDTLNSDGYTPEPARITSPDKPRPMPMDTSVYESPYSDPEELKDKKLFLKRDNLLIADIELGCGNFGSVRQGVYRMRKKQIDVAIKVLKQGTEKADTEEMMREAQIMHQLDNPYIVRLIGVCQAEALMLVMEMAGGGPLHKFLVGKREEIPVSNVAELLHQVSMGMKYLEEKNFVHRDLAARNVLLVNRHYAKISDFGLSKALGADDSYYTARSAGKWPLKWYAPECINFRKFSSRSDVWSYGVTMWEALSYGQKPYKKMKGPEVMAFIEQGKRMECPPECPPELYALMSDCWIYKWEDRPDFLTVEQRMRACYYSLASKVEGPPGSTQKAEAACA
modifications: left off: small tags and cut ends
Consider B6, for which the “MBP Kinase Activity” value was “Negative”.

B7: ADRBK2(GRK3) (protein, UniProt P35626 1-688, looked up)
G protein-coupled receptor …: MADLEAVLADVSYLMAMEKSKATPAARASKRIVLPEPSIRSVMQKYLAERNEITFDKIFNQKIGFLLFKDFCLNEINEAVPQVKFYEEIKEYEKLDNEEDRLCRSRQIYDAYIMKELLSCSHPFSKQAVEHVQSHLSKKQVTSTLFQPYIEEICESLRGDIFQKFMESDKFTRFCQWKNVELNIHLTMNEFSVHRIIGRGGFGEVYGCRKADTGKMYAMKCLDKKRIKMKQGETLALNERIMLSLVSTGDCPFIVCMTYAFHTPDKLCFILDLMNGGDLHYHLSQHGVFSEKEMRFYATEIILGLEHMHNRFVVYRDLKPANILLDEHGHARISDLGLACDFSKKKPHASVGTHGYMAPEVLQKGTAYDSSADWFSLGCMLFKLLRGHSPFRQHKTKDKHEIDRMTLTVNVELPDTFSPELKSLLEGLLQRDVSKRLGCHGGGSQEVKEHSFFKGVDWQHVYLQKYPPPLIPPRGEVNAADAFDIGSFDEEDTKGIKLLDCDQELYKNFPLVISERWQQEVTETVYEAVNADTDKIEARKRAKNKQLGHEEDYALGKDCIMHGYMLKLGNPFLTQWQRRYFYLFPNRLEWRGEGESRQNLLTMEQILSVEETQIKDKKCILFRIKGGKQFVLQCESDPEFVQWKKELNETFKEAQRLLRRAPKFLNKPRSGTVELPKPSLCHRNSNGL
Turning to B7, the “MBP Kinase Activity” value is “Negative”.

B8: JAK3 (protein)
chain: ISSDYELLSDPTPGALAPRDGLWNGAQLYACQDPTIFEERHLKYISQLGKGNFGSVELCRYDPLGDNTGALVAVKQLQHSGPDQQRDFQREIQILKALHSDFIVKYRGVSYGPGRQSLRLVMEYLPSGCLRDFLQRHRARLDASRLLLYSSQICKGMEYLGSRRCVHRDLAARNILVESEAHVKIADFGLAKLLPLDKDYYVVREPGQSPIFWYAPESLSDNIFSRQSDVWSFGVVLYELFTYCDKSCSPSAEFLRMMGCERDVPALCRLLELLEEGQRLPAPPACPAEVHELMKLCWAPSPQDRPSFSALGPQLDMLWSGSRGCETHAFTAHPEGKHHSLSFS
modifications: left off: a dimerising Fc or GST
B8: the “MBP Kinase Activity” value is “Strong”.

B9: FER (protein)
chain: KSGVVLLNPIPKDKKWILSHEDVILGELLGKGNFGEVYKGTLKDKTSVAVKTCKEDLPQELKIKFLQEAKILKQYDHPNIVKLIGVCTQRQPVYIIMELVSGGDFLTFLRRKKDELKLKQLVKFSLDAAAGMLYLESKNCIHRDLAARNCLVGENNVLKISDFGMSRQEDGGVYSSSGLKQIPIKWTAPEALNYGRYSSESDVWSFGILLWETFSLGVCPYPGMTNQQAREQVERGYRMSAPQHCPEDISKIMMKCWDYKPENRPKFSELQKELTIIKRKLT
modifications: left off: a dimerising Fc or GST
B9: the “MBP Kinase Activity” value is “Negative”.
